Here are results for 8 molecules from patent US20190077863A1 (AERPIO PHARMACEUTICALS, published 2019).

Positions count from the first letter of the chain named. Names and notes keep the numbering of the source.

Broadly, the Kd is a measure of binding affinity in units of concentration. The koff is a measure of how fast the partners let go of each other. Lower therefore signals slow dissociation. The kon is the second-order rate constant of association. A low value points to slow association.

T1: Human HPTP-η with C-terminal His10 tag (Human HPTP-η ECD) (human, UniProt Q12913 36-975)
T1 construct: Produced in HEK293 cells; it was not cut off; also called Human PTPη; human PTP-η
T1 sequence: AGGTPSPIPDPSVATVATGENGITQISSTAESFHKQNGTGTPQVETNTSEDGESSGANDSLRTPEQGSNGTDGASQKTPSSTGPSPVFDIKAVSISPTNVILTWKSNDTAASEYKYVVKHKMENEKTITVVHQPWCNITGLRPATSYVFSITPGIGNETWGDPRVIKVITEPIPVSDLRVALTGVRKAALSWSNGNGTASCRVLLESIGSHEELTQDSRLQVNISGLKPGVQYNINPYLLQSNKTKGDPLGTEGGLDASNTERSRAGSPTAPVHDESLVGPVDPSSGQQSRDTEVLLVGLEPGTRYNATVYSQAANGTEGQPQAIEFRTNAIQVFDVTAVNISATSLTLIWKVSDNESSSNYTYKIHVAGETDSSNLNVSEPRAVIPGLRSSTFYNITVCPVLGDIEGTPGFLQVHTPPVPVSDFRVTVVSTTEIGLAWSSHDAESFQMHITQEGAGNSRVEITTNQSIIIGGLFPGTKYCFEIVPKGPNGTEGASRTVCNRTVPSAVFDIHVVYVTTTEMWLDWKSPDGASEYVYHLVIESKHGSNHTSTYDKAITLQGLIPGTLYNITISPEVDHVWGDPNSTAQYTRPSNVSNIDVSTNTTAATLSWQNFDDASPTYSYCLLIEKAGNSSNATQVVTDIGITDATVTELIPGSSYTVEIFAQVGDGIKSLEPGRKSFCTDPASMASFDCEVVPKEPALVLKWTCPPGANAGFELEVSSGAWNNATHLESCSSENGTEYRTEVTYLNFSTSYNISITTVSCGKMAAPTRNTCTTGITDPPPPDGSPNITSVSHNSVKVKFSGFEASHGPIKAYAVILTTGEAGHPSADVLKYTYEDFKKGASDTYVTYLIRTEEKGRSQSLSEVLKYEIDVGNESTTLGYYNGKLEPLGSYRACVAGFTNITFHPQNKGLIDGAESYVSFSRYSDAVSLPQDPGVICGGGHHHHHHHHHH

T2: Human VE-PTP (HPTP-β) containing first eight FN3 repeats with C-terminal His6 tag (Human ½ VE-PTP ECD) (human, UniProt P23467 23-820)
T2 construct: Produced in HEK293 cells and purified by the His tag; it was not cut off; also called Human Beta ½ ECD
T2 sequence: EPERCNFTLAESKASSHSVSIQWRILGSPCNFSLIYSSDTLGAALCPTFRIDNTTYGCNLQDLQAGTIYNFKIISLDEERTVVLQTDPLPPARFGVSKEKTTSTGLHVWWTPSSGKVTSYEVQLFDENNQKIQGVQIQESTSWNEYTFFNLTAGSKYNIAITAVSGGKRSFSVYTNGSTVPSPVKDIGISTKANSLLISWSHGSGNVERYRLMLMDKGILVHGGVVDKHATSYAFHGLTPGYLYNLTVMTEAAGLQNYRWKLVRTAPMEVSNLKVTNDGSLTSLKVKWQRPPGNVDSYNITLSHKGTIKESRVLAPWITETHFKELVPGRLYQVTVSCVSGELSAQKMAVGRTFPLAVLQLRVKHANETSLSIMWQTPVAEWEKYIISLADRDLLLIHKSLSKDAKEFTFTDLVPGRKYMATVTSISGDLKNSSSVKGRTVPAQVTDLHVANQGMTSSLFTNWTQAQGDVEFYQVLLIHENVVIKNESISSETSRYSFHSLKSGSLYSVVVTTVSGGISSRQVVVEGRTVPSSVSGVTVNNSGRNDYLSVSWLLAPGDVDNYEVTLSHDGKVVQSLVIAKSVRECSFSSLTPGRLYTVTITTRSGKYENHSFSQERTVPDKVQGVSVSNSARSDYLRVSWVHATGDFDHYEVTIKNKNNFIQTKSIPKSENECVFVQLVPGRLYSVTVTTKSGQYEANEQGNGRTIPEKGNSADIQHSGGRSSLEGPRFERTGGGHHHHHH

B1: mouse/human chimeric antibody HC0LC0 (antibody, human IgG4 S228P, kappa, V domains shown)
VH: EVQLVETGGGLVQPKGSMKLSCAASGFTFNANAMNWIRQAPGKGLEWVARIRTKSNNYATYYAGSVKDRFTISRDDAQNMLYLQMNDLKTEDTAMYYCVRDYYGSSAWITYWGQGTLVTVSA
VL: DIVMTQSHKFMSTSVGDRVSITCKASQHVGTAVAWYQQKPDQSPKQLIYWASTRHTGVPDRFTGSGSGTDFTLTISNVQSEDLADYFCQQYSSYPFTFGSGTKLEIKR
notes: Murine variable domains of R15E6 on human IgG4 (S228P) and kappa constant domains, expressed in CHO cells; also called VH0-VL0
B2: humanized R15E6 variant HC2LC1 (antibody, human IgG4 S228P, kappa, V domains shown)
VH: EVQLVESGGGLVQPGGSLRLSCAASGFTFNANAMNWVRQAPGKGLEWVGRIRTKSNNYATYYAGSVKDRFTISRDDSKNSLYLQMNSLKTEDTAVYYCVRDYYGSSAWITYWGQGTLVTVSS
VL: DVVMTQSPSFLSASVGDRVTITCKASQHVGTAVAWYQQRPGKAPKLLIYWASTRHTGVPSRFSGSGSGTEFTLTISSLQPEDFATYFCQQYSSYPFTFGGGTKLEIKR
notes: Human IgG4 (S228P) / kappa, expressed in CHO cells; Signal peptides left out by range; also called VH2-VL1
B3: humanized R15E6 variant HC2LC2 (antibody, human IgG4 S228P, kappa, V domains shown)
VH: B2 VH
VL: DIVMTQSPDSLAVSLGERATINCKASQHVGTAVAWYQQKPGQPPKLLIYWASTRHTGVPDRFSGSGSGTDFTLTISSLQAEDVAVYYCQQYSSYPFTFGQGTKLEIKR
notes: Human IgG4 (S228P) / kappa, expressed in CHO cells; Signal peptides left out by range; also called VH2-VL2
B4: humanized R15E6 variant HC2LC4 (antibody, human IgG4 S228P, kappa, V domains shown)
VH: B2 VH
VL: B3 VL with G41E, Q100G, L104V
notes: Human IgG4 (S228P) / kappa, expressed in CHO cells; Signal peptides left out by range; also called VH2-VL4
B5: humanized R15E6 variant HC1LC4 (antibody, human IgG4 S228P, kappa, V domains shown)
VH: B2 VH with R19K, P41S, S80T, L81A, V95A
VL: B3 VL with G41E, Q100G, L104V
notes: Human IgG4 (S228P) / kappa, expressed in CHO cells; Signal peptides left out by range; also called VH1-VL4
B6: humanized R15E6 variant HC3LC4 (antibody, human IgG4 S228P, kappa, V domains shown)
VH: B2 VH with G16R, A23T, S80I, L81A
VL: B3 VL with G41E, Q100G, L104V
notes: Human IgG4 (S228P) / kappa, expressed in CHO cells; Signal peptides left out by range; also called VH3-VL4
B7: humanized R15E6 variant HC1LC2 (antibody, human IgG4 S228P, kappa, V domains shown)
VH: B2 VH with R19K, P41S, S80T, L81A, V95A
VL: B3 VL
notes: Human IgG4 (S228P) / kappa, expressed in CHO cells; Signal peptides left out by range; also called VH1-VL2
B8: humanized R15E6 variant HC2LC3 (antibody, human IgG4 S228P, kappa, V domains shown)
VH: B2 VH
VL: B2 VL with V2I, V3Q, S9F, F10S, R39K, E70D
notes: Human IgG4 (S228P) / kappa, expressed in CHO cells; Signal peptides left out by range; also called VH2-VL3

One test concerns the target T1, Human HPTP-η with C-terminal His10 tag …. Description: ELISA, coated antigen. How it is done:
(§1) HPTP-β, cyno PTP-β, and HPTP-η proteins were coated onto ELISA plates in coating buffer (pH 9.4). Each protein was prepared as a 1 μg/mL protein stock in 50 mM carbonate-bicarbonate. The coated proteins were aliquoted at a volume of 100 μL/well into sterile, clear, polystyrene, flat bottom 96-well plates. The plates were incubated overnight at 4° C. After overnight incubation, the plates were washed 3× with 200 μL/well of 1×PBS-T (PBS with 0.05% Tween 20). The immunizing protein was human VE-PTP (HPTP-β). The plates were then blocked with 200 μL/well of 5% blotting grade blocker non-fat dry milk in PBS-T and incubated for 1 hr at room temperature.
(§2) Primary antibody samples were prepared for the humanized variants and the negative control, anti-hCD20-hIgG4S228P, using 1 μg/well in 5% blotting grade blocker non-fat dry milk in PBS. Samples were tested in triplicates. The Fab antibody fragments were treated as the IgG antibodies. The plates were then washed 3× with PBS-T and 100 μL of primary antibody preparation was added in each well. The plates were then incubated for 1 hr at room temperature.
(§3) Then, […] Ultra TMB-ELISA was added in each well, and the plate was allowed to develop for 5 min at room temperature. After 5 min, 50 μL of 2 M sulfuric acid was added to each well to stop the reaction. The plates were then analyzed on a plate reader at an absorbance wavelength of 450 nm.
(In general: In an ELISA, binding on a coated surface is turned into a signal by an enzyme label.)
On to B1, for which the binding result is on record as “no binding (tested: <=0.2; 1 µg/well)”.
Still for that read-out and setting: the result for B2 reads “no binding (tested: <=0.2; 1 µg/well)”; that for B3, “no binding (tested: <=0.2; 1 µg/well)”; that for B4, “no binding (tested: <=0.2; 1 µg/well)”.
The same measure, in the same setting: the result for B5 reads “no binding (tested: <=0.2; 1 µg/well)”.
Take B6: the binding result is reported as “no binding (tested: <=0.2; 1 µg/well)”.
Turning to B7, the binding result is “no binding (tested: <=0.2; 1 µg/well)”.
B8: the binding result is recorded as “no binding (tested: <=0.2; 1 µg/well)”.

In the next test the target is T2, Human VE-PTP (HPTP-β) containing first …. Description: ELISA, antigen coated at 1 µg/mL, antibody 1 µg/well. How it is done:
as §1, §2, §3
As for B1, the “ELISA value (absorbance at 450 nm)” value turned out to be 1.8.
Take B2: the “ELISA value (absorbance at 450 nm)” value worked out at 1.81.
For B3, the “ELISA value (absorbance at 450 nm)” value came to 1.92.
For the molecule B4, the “ELISA value (absorbance at 450 nm)” value came out at 1.65.
Take B5: the “ELISA value (absorbance at 450 nm)” value worked out at 1.74.
On the same count and under the same terms, in the case of B6 it was 2; in that of B7, 1.75.
On to B8, for which the “ELISA value (absorbance at 450 nm)” value turned out to be 1.55.

For another test the target is unchanged. Description: SPR (Biacore 3000), antibody captured on anti-human IgG, antigen as analyte 100 nM (single concentration). As to the method: Samples of each variant were further assessed by Biacore analysis to determine the binding affinity. Antibody binding experiments were performed on Biacore 3000™ at 25° C. Assay buffer: 10 mM HEPES buffer (pH 7.4), 150 mM NaCl, 3 mM EDTA, 0.05% P20 (polyoxyethylenesorbitan). […] Conjugation buffer: 10 mM sodium acetate buffer (pH 5). The flow rate used for capturing the ligand was 5 μL/min. The flow rate for the kinetic analysis was 50 μL/min. Flow cell 1 and […] of the CM5 chip were coated with maximum amounts of goat anti-human IgG. Approximately 150 RU of the test antibody was captured on flow cell 2, 3, and 4 as indicated. The antigen was flowed over the chip. Binding of the antigen to the antibodies was monitored in real time. The KD was determined from the observed kₒₙ and koff values.
A scouting analysis was performed using single analyte concentrations as indicated. At these concentrations, binding can be observed even if the ligand binding is weak. Flow cell 1 response was used for reference subtraction.
For orientation: Surface plasmon resonance follows binding to a sensor surface in real time, without labels.
Turning to B1, the Ka is 1.61e+08 M⁻¹, the Kd was 6.22 nM, the koff came to 0.000417 s⁻¹ and the kon turned out to be 67100 M⁻¹ s⁻¹.
B2 had a Ka of 7.24e+07 M⁻¹, a Kd of 13.8 nM, a koff of 0.000688 s⁻¹ and a kon of 49800 M⁻¹ s⁻¹.
Molecule B3 had a Ka of 2.85e+08 M⁻¹, a Kd of 3.51 nM, a koff of 0.000524 s⁻¹ and a kon of 149000 M⁻¹ s⁻¹.
The corresponding values for B4 are 7.72e+07 M⁻¹, 13 nM, 0.000668 s⁻¹ and 51500 M⁻¹ s⁻¹.
The corresponding values for B5 are 2.26e+08 M⁻¹, 4.42 nM, 0.000792 s⁻¹ and 179000 M⁻¹ s⁻¹.
In the case of B6, the Ka amounted to 1.59e+08 M⁻¹, binding was put at a Kd of 6.29 nM, the koff worked out at 0.000887 s⁻¹ and the kon worked out at 139000 M⁻¹ s⁻¹.
As to B7, the Ka worked out at 3.27e+08 M⁻¹, the Kd is 3.06 nM, the koff amounted to 0.000769 s⁻¹ and the kon was 251000 M⁻¹ s⁻¹.
With B8, the Ka was 3.36e+08 M⁻¹, binding was put at a Kd of 2.98 nM, the koff is 0.000662 s⁻¹ and the kon came to 222000 M⁻¹ s⁻¹.
